The text below walks through data of doi:10.1101/808618v2.

Holding throughout (assay): purified protein
Substrate in series [1]: NC(=O)CC[C@H](N)C(=O)O
To be noted: pH 8.5, 25 °C, 20 mM MgCl2, XMP […], ATP 2 mM fixed.

Substrate in series [2]: Nc1ncnc2c1ncn2[C@@H]1O[C@H](COP(=O)(O)OP(=O)(O)OP(=O)(O)O)[C@@H](O)[C@H]1O
As to conditions: pH 8.5, 25 °C, 20 mM MgCl2, XMP […], Gln 5 mM fixed.

Substrate in series [3]: O=c1[nH]c(=O)c2ncn([C@@H]3O[C@H](COP(=O)(O)O)[C@@H](O)[C@H]3O)c2[nH]1
As to conditions: pH 8.5, 25 °C, 20 mM MgCl2, ATP 2 mM, Gln 5 mM fixed.

B1: PfGMPS (Plasmodium falciparum 3D7) (protein)
chain: MEGEEYDKILVLNFGSQYFHLIVKRLNNIKIFSETKDYGVELKDIKDMNIKGVILSGGPYSVTEAGSPHLKKEVFEYFLEKKIPIFGICYGMQEIAVQMNGEVKKSKTSEYGCTDVNILRNDNINNITYCRNFGDSSSAMDLYSNYKLMNETCCLFENIKSDITTVWMNHNDEVTKIPENFYLVSSSENCLICSIYNKEYNIYGVQYHPEVYESLDGELMFYNFAYNICKCKKQFDPIRYHELELKNIEKYKHDHYVIAAMSGGIDSTVAAAYTHKIFKERFFGIFIDNGLLRKNEAENVYTFLKSTFPDMNITKIDASENFLSNLQGVTDPEQKRKIIGKLFIEEFEKAVNNIDIDINKTFLLQGTLYPDIIESKCSKNLSDTIKTHHNVGGLPKNLKFKLFEPFKYLFKDDVKTLSRELNLPEEITNRHPFPGPGLAIRVIGEINKHKLNILREVDDIFINDLKQYGLYNQISQAFAVLLSSKSVGVRGDARSYDYVCVLRAVKTSSFMTANWYQIPYDILDKITTRILSEVKGVNRILYDVSSKPPATIEFE
B1: the Km worked out at 330 ± 20 µM in the series “purified protein [1]”, 119 ± 2 µM in the series “purified protein [2]” and 7.1 ± 1 µM in “purified protein [3]”. In addition, the kcat stood at 0.766 ± 0.005 s⁻¹ in “purified protein [1]”, 0.893 ± 0.039 s⁻¹ in “purified protein [2]” and 0.741 ± 0.058 s⁻¹ in “purified protein [3]”.

What is called Km is the substrate concentration at which the rate is half of its maximum. A word on the kcat: it is the maximal rate divided by the concentration of active sites.
